One molecule from patent publication US20210363204A1 can be followed below.

The target in this experiment is human Nav1.7, Q15858. The conditions noted are these: chains peptide; modification not given.

As a reminder, the IC50 is the concentration at which inhibition is half-maximal. Read a low IC50 as greater potency in that assay. GPYCQKWMWTCDSERKCCEGMVCRLWCKKKLW [recombinant Protoxin-II] registered an IC50 of 62 nM.
